According to the supplement of paper PMC9732359:
± gives the uncertainty stated by the source.

Assay: protein stability index of a GFP-peptide fusion (yeast GPS) (PSI 1-4); higher = more stable; sorted into four equal gates, so the index is relative within each strain
Summary of the method: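 Plasmids isolated from each sorting gate were PCR-amplified and Illumina-sequenced, and barcodes assigned the reads to strains. The gates, four of equal size, were set by GFP/Cherry fluorescence ratio on mid-log cultures in leucine-free medium. These cultures were yeast carrying a pooled library of tiled 17-residue yeast protein peptides fused downstream of GFP on a plasmid that also expresses Cherry. The protein stability index is the sum of every gate's read frequency times its gate number.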

Sequence	protein stability index (doa10∆)	protein stability index (pdr5∆)	protein stability index (san1∆)	protein stability index (ubr1∆)
LHTARKILVLTGAGVST [SIR2]	2.06 ± 0.052	1.56 ± 0.054	2.33 ± 0.082	2.29 ± 0.059
AAVLSNLQGDLQAIQEK [ITC1]			3.31 ± 0.16	
ETAQAINGWELTKAQKY [RPL17A]	3.27 ± 0.055	3.35 ± 0.049	3.18 ± 0.034	3.28 ± 0.043
LRLCLDIVPYFLKHNGE [RPN1]	2.3 ± 0.063	2.01 ± 0.037	1.71 ± 0.082	2.52 ± 0.074
YLKFIPLKRAIWLIKCC [SRB8]	2.51 ± 0.095	1.86 ± 0.069	2.19 ± 0.16	2.16 ± 0.057
ECKGCDNKIDIYQIHIP [RPB2]	3 ± 0.044	2.87 ± 0.048	3.02 ± 0.035	2.54 ± 0.032
GSFKRVKPQYDEIHIPA [BRR2]	2.73 ± 0.1	3.07 ± 0.14	2.33 ± 0.096	2.46 ± 0.11
NKNIDIGLLNKSKSSLD [RPN2]	2.37 ± 0.071	2.22 ± 0.097	1.76 ± 0.096	1.92 ± 0.05
TQEQFVKRRRDMLEHIN [SRB4]		2.06 ± 0.27		1.26 ± 0.089
TRLLNIVMQLRKCCNHP [ISW2]	2.65 ± 0.062	2.84 ± 0.061	2.94 ± 0.049	2.84 ± 0.057
WVIRKQRRTNNSGVGSA [MED6]	2.48 ± 0.27	2.36 ± 0.14	2.58 ± 0.11	2.8 ± 0.14
SPRVEKRSFSSTLKSFF [YOR098C/NUP1]	1.55 ± 0.067	2 ± 0.046	2.26 ± 0.078	1.92 ± 0.043
LITTNSVEEVILERAYK [SNF2]	2.37 ± 0.092	1.85 ± 0.063	2.18 ± 0.09	1.95 ± 0.031
KGLLIWRLLFIDKFIMV [GRR1]	1.43 ± 0.062	1.35 ± 0.048	1.41 ± 0.089	1.5 ± 0.052
ADVLYKTAFKPHELTES [QCR2]	3.11 ± 0.062	3.17 ± 0.059	2.98 ± 0.051	3.15 ± 0.045
MANTGCLSPGAFLSKVP [SRP14]	2.56 ± 0.076	2.3 ± 0.091	2.74 ± 0.14	2.52 ± 0.061
DTLCGIRKLTLRDTFIE [RPO21]	2.91 ± 0.085	1.58 ± 0.058	1.26 ± 0.1	1.46 ± 0.056
KPTREPTPSVKTEPVGT [RPC53]	3.15 ± 0.22	3.06 ± 0.26	2.95 ± 0.19	3.02 ± 0.21
NLYDGAEHKYMPYTINE [BRR2]	3.08 ± 0.071	3.05 ± 0.071	3.13 ± 0.048	3.28 ± 0.062
ARYSIIREINYTMSNHG [RPO31]				1.44 ± 0.23
DYRVLVDKSRKVAHTSY [PRE8]	2.81 ± 0.12	2.48 ± 0.13	2.3 ± 0.13	2.08 ± 0.095
KASSTPAGGLFGQASGA [YGL172W/NUP49]			2.19 ± 0.26	
GISLVMEIVANAKESNY [MED1]	1.77 ± 0.065	1.98 ± 0.069	2.28 ± 0.085	2.15 ± 0.043
YFNQLKPYYFSNNHKLS [RPN12]	1.17 ± 0.057	1.32 ± 0.077	1.19 ± 0.13	1.24 ± 0.04
MPPKEDWEKYKAPLEDD [RPT1]	3.21 ± 0.12	3.29 ± 0.21	3.38 ± 0.069	3.27 ± 0.19
RRVKQLDDITDSNTTEI [SIR4]	3.27 ± 0.086	3.14 ± 0.072	2.83 ± 0.069	3 ± 0.065
NSQTVSGTPITQTESKK [SNF2]	2.67 ± 0.05	2.27 ± 0.05	2.7 ± 0.053	2.39 ± 0.039

Sequence	protein stability index (doa10∆)	protein stability index (pdr5∆)	protein stability index (san1∆)	protein stability index (ubr1∆)
NYGEKEERKRWAMQGIS [PCI8]	2.92 ± 0.14	2.52 ± 0.24		
FSFGTSQPNNTPSFSFG [YLR335W/NUP2]	2.81 ± 0.048	2.73 ± 0.047	2.88 ± 0.053	2.59 ± 0.037
KNAANTEGHKGHEELKR [ISW2]	3.43 ± 0.086	3.16 ± 0.081	3.2 ± 0.098	3.35 ± 0.061
YSILGDRFKYRSVDRAG [POP4]		2.93 ± 0.23	3.45 ± 0.13	
IKTFFTQKDSARVSPRN [YAR002W/NUP60]	3.22 ± 0.097	3.49 ± 0.1	3.18 ± 0.086	3.02 ± 0.064
DINPPLVFILAVVGNNM [RRP42]	1.84 ± 0.083	1.78 ± 0.058	1.96 ± 0.082	1.52 ± 0.046
TVGSSNGGLIHVVTREK [RPO21]	2.98 ± 0.15	3.19 ± 0.12	2.87 ± 0.13	3.09 ± 0.07
VRVRTTKIPQIGDKFAS [RPB2]	2.55 ± 0.068	2.68 ± 0.072	3.13 ± 0.064	2.66 ± 0.035
IVHSSDGHLQFLNDVIP [DLS1]	2.99 ± 0.082	2.75 ± 0.077	2.6 ± 0.16	2.51 ± 0.088
SIKNNVAMCFVINKLDR [SNU114]	1.9 ± 0.14	1.91 ± 0.12		
ATVEECVKLTVRSLLEV [PRE6]	1.53 ± 0.052	1.72 ± 0.064	1.88 ± 0.12	1.47 ± 0.055
KKASDLVDTPSNNTAAT [NUT1]	3.28 ± 0.1	3.17 ± 0.074	3.11 ± 0.046	3.21 ± 0.06
DTSRPDLEWQELTSFSS [DSN1]	3.18 ± 0.053	3.05 ± 0.053	3.08 ± 0.055	2.85 ± 0.042
PTRIRTKSSKEFFNTLR [RRI2]	2.73 ± 0.13	3.01 ± 0.15	3.06 ± 0.081	2.91 ± 0.11
KNKYGEINSEDYDNKTK [SRP68]	3.23 ± 0.094	2.89 ± 0.16	3.43 ± 0.06	3.14 ± 0.084
INSENDYSRKQLGYGKF [NUT1]	3.46 ± 0.26			3.17 ± 0.22
LEIMQLVCGNDSSYQDI [RET1]			3.18 ± 0.081	2.91 ± 0.17
TNKENNIVDSSAAGNKA [YIL149C/MLP2]	2.18 ± 0.061	2.44 ± 0.057	2.87 ± 0.041	2.92 ± 0.036
NSFTKGNVFSPIDNNII [SNU114]	2.98 ± 0.093	2.92 ± 0.074	2.83 ± 0.081	2.95 ± 0.058
PAANESEVANNGLIISW [RRP42]	1.43 ± 0.15	1.49 ± 0.052	1.13 ± 0.28	1.4 ± 0.072
LMYQIKKECALLISYGV [SRB4]	1.9 ± 0.12	3.09 ± 0.16	2.12 ± 0.19	1.93 ± 0.15
QYGYSGSSAGMNGRSLT [SNF6]	3.14 ± 0.07	3.11 ± 0.061	3.17 ± 0.046	3.1 ± 0.042
SFNCENFFQAPQDYVLE [YML031W/NDC1]	3.07 ± 0.079	3.06 ± 0.082	3.09 ± 0.07	3.11 ± 0.067
MKTVQSPMGAQPSYNSA [GAL11]	3.37 ± 0.26	2.91 ± 0.1	2.56 ± 0.21	2.65 ± 0.081
RSMIEHARTAAVTHNLY [PUP2]	2.16 ± 0.13	2.98 ± 0.22	2.46 ± 0.13	2.67 ± 0.083
IQGFYWAVKEGPLAEEP [SNU114]	1.58 ± 0.089	1.35 ± 0.086	1.27 ± 0.21	1.22 ± 0.04
TPMGGFVHYGEIKNDFI [RPL3]	3.32 ± 0.093	3.19 ± 0.092	3.27 ± 0.12	3.28 ± 0.078

Sequence	protein stability index (doa10∆)	protein stability index (pdr5∆)	protein stability index (san1∆)	protein stability index (ubr1∆)
RAPKVIHGQDFQFFPKE [ISW2]	2.56 ± 0.068	2.47 ± 0.069	3.17 ± 0.065	2.83 ± 0.052
WADIFAKALDGQNLKDL [RPP1A]	3.08 ± 0.11	3.31 ± 0.13	2.58 ± 0.24	2.94 ± 0.2
SLPLIVFLRNRLKYALN [RPS4A]	1.4 ± 0.059	1.58 ± 0.092	1.48 ± 0.12	1.7 ± 0.043
INIAQMSACVGQQSVEG [RPO21]			3.22 ± 0.17	3.07 ± 0.1
YNSFPHSNLEKISNSKL [SIR4]	2.77 ± 0.066	2.65 ± 0.076	2.61 ± 0.043	2.76 ± 0.048
RLPTFLKHKSICSCVNR [RPP1]	1.84 ± 0.086	2.24 ± 0.11	1.98 ± 0.13	2.83 ± 0.08
MFGAKPAGTSLFGNNAG [YGL172W/NUP49]	3.16 ± 0.076	3.08 ± 0.067	3.01 ± 0.072	3.06 ± 0.053
NVELLNCIRILADKLEN [YIL149C/MLP2]	1.22 ± 0.069	1.36 ± 0.074	1.06 ± 0.13	1.2 ± 0.045
KVATEKDFLKAVDKVIS [RPT1]	3.23 ± 0.074	3.26 ± 0.094	3.05 ± 0.11	3.26 ± 0.053
ALMKEKDIRSTLASLIR [RPC82]	3.2 ± 0.27	2.85 ± 0.21	2.43 ± 0.24	3.13 ± 0.12
PSYSPTSPGYSPGSPAY [RPO21]	2.52 ± 0.067	2.27 ± 0.053	2.33 ± 0.1	2.02 ± 0.043
GKTTSCTKLAVYYSKRG [SRP54]		2.76 ± 0.19	2.18 ± 0.22	2.51 ± 0.098
SFFVSVRKAITVLFFIG [FAS1]	1.48 ± 0.087	1.34 ± 0.11		1.09 ± 0.041
DPVEGNLEFDSTNHPDY [SRP14]	2.9 ± 0.066	2.79 ± 0.068	3.09 ± 0.049	2.95 ± 0.051
KYVLITGAGKGSIGAEV [FAS2]	3.22 ± 0.24	3.27 ± 0.12	3.63 ± 0.099	3.05 ± 0.093
LHIHLNQILQTEIENYL [YDL116W/NUP84]	1.88 ± 0.054	2.15 ± 0.042	2.03 ± 0.075	1.86 ± 0.043
DPDTKKVKESPANDQAS [YIL149C/MLP2]	3.04 ± 0.084	3.21 ± 0.078	3.06 ± 0.049	3.12 ± 0.093
VTFSFFNPQDTEENIKG [RRP45]	2.15 ± 0.081	2.55 ± 0.08	3.08 ± 0.08	3.19 ± 0.076
ITHKLTKNDAGSKQILK [BRR2]	3.07 ± 0.071	3.43 ± 0.079	3.21 ± 0.036	3.23 ± 0.055
ISFVLGVRSNHLRSNIL [SMC1]	2.09 ± 0.061	2.16 ± 0.088	2.08 ± 0.097	2.47 ± 0.064
TPSLPIAPPVAPHDSEA [SNF5]	2.6 ± 0.07	2.48 ± 0.074	3.23 ± 0.064	2.52 ± 0.066
PPKEGNYEIVFDTVSNK [YMR129W/POM152]	3.11 ± 0.086	3.13 ± 0.095	3.29 ± 0.26	3 ± 0.1
VSLLKKNWQNVGSLVVK [RPL1A]	1.15 ± 0.049	1.39 ± 0.056	1.36 ± 0.12	1.32 ± 0.053
RNARATRAAKIAPRPLD [RPL13A]			3.33 ± 0.1	
LLETITYVLNTWTNSKI [YML103C/NUP188]	1.85 ± 0.05	2.21 ± 0.05	2.14 ± 0.066	2.29 ± 0.036
YIQERLKSLNDIETQLC [MED11]	2.83 ± 0.083	2.68 ± 0.091	2.77 ± 0.1	2.8 ± 0.07
